Results as given in article doi:10.1101/2025.06.23.656378.

Test system: poly-L-lysine (PLL, 30-70 kDa, Sigma P2636)
Assay: EMSA
Settings: 10 mM Tris pH 7.5, 100 mM KCl, 5% glycerol, 30 min at room temperature

Row | Sequence | Kd
1 | TTAGAATTAGAATTAGAATTAGAA [dTERRA_M2 [TTAGAA]4] | 34 nM
2 | UUAGAAUUAGAAUUAGAAUUAGAA [rTERRA_M2 [UUAGAA]4] | 7.4 nM
